# Test results as given in article PMC4227788, “Architecture and ssDNA interaction of the Timeless-Tipin-RPA complex” (Nucleic Acids Research, 2014).
# Experiments:
# [1] = target: RPA70/32/14 (RPA70ABC/32D-WH/14) (mouse, UniProt Q8VEE4;Q99KL9;Q9CQ71 190-623;43-270;1-121); experiment: EMSA; 1 RPA with excess DNA, up to 2 RPA at substoichiometric DNA; 20 mM Hepes pH 7.5, 125 mM NaCl, 2 mM DTT, 0.01 mM zinc acetate (Buffer A); EMSA 15 min RT + 15 min 4 C; FA 15 min 30 C, 10 nM DNA; conditions: protein: recombinant; tags: His; copies: 1;1;1; label: 5'-FAM
# RPA70/32/14 (RPA70ABC/32D-WH/14), sequence (Q8VEE4 190-623, chain 1 of 3): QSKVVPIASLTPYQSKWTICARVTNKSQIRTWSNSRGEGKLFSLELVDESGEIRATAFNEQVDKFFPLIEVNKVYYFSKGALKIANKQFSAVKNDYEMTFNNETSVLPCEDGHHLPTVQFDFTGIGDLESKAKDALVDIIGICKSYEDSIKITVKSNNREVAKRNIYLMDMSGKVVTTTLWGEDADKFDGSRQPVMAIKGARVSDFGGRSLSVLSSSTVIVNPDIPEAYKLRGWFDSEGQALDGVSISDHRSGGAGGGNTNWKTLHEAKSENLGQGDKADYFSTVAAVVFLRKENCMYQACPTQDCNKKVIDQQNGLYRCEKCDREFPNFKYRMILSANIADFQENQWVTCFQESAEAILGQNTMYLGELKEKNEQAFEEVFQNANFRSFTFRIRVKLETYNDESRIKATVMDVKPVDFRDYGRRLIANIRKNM
# RPA70/32/14 (RPA70ABC/32D-WH/14), sequence (chain, as listed by the source, chain 2 of 3): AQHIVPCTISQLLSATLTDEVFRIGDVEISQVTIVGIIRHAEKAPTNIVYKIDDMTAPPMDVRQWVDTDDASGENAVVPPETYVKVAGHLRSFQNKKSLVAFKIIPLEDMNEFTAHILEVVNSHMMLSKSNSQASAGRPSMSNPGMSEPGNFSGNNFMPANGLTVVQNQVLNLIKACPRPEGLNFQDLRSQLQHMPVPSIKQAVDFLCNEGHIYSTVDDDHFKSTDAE
# RPA70/32/14 (RPA70ABC/32D-WH/14), sequence (Q9CQ71 whole entry, chain 3 of 3): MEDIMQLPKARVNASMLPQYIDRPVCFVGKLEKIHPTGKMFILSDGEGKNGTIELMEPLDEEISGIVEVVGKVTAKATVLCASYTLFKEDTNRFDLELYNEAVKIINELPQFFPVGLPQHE
# Tim-Tipin complex = target: T1, Tim-Tipin complex (mouse, UniProt Q9R1X4;Q91WA1 1-1134;1-278); experiment: fluorescence anisotropy; Hill n = 1.2 ± 0.2; 30 C; 20 mM Hepes pH 7.5, 125 mM NaCl, 2 mM DTT, 0.01 mM zinc acetate (Buffer A); EMSA 15 min RT + 15 min 4 C; FA 15 min 30 C, 10 nM DNA; conditions: protein: recombinant; tags: His (Tim) and His-GST (Tipin), cleaved with 3C; copies: 1;1; label: 5'-FAM
# T1 sequence 1: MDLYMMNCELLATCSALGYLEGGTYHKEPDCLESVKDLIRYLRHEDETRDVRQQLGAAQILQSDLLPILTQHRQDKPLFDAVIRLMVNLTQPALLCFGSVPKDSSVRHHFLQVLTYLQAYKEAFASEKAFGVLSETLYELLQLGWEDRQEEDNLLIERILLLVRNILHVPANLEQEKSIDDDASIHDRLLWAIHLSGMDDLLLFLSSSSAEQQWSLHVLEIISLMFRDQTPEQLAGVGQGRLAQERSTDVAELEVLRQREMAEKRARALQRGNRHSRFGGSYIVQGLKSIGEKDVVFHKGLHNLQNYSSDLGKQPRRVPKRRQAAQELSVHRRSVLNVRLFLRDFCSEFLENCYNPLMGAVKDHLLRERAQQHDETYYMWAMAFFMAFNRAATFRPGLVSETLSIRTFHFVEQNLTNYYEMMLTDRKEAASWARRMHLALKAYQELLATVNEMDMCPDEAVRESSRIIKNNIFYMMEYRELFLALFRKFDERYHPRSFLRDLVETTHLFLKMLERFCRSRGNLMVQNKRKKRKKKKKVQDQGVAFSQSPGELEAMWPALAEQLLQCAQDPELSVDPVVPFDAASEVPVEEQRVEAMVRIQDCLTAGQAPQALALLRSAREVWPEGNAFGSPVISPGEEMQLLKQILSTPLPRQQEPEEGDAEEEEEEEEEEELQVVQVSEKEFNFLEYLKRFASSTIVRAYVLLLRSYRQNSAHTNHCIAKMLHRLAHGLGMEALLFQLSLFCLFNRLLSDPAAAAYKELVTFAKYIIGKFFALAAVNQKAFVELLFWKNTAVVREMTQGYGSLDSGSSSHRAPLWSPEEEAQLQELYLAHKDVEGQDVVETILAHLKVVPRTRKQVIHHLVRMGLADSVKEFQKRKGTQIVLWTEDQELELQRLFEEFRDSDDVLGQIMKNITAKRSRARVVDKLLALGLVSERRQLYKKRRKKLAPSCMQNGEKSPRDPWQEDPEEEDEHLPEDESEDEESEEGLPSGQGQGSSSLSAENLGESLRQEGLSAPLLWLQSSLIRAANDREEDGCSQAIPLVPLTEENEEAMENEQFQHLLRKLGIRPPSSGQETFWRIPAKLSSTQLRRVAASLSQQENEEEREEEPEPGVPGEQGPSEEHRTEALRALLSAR
# T1 sequence 2: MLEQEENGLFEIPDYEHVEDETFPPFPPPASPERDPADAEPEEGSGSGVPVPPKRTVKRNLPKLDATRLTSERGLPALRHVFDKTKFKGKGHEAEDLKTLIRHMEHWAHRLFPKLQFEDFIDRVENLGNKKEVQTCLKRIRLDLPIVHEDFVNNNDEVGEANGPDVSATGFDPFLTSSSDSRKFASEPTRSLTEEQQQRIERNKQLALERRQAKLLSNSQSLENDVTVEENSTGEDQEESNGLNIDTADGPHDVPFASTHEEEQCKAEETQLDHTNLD
binder,measurement,setting,value
ACGCTGCCGAATTCTACCAGTGCCTTGCTA (ssDNA) [30 nt FAM ssDNA],binding result,[1],binds
same,Kd,Tim-Tipin complex,1700 ± 200 nM
